This note sets out measurements from US20240002497A1 (Merck Sharp & Dohme, published 2024).

The target in test [1] is T1, muNav1.7α (murine, UniProt Q62205 1-1984).
T1 construct: HEK JmpIn cells; also called murine Nav1.7α
Description: binding FACS, HEK JmpIn. The protocol:
(§1) Binding of the ISVDs to cell-expressed Nav1.7α was detected via murine anti-Flag (Sigma, catalog #F1804). Briefly, cells were resuspended in FACS buffer (PBS, 10% FBS, NaN₃) and transferred to a 96-well V-bottom plate at 1×10^5 cells/well. Purified FLAG3-tagged ISVD was diluted in FACS buffer and added to the cells for 30 minutes at 4° C. […] Prior to the read-out, the samples were resuspended in 1 μg/mL propidium iodide (Sigma, catalog #P4170) to exclude dead cells. Between each step, the cells were centrifuged for 5 minutes at 200 grams and washed with 100 μL/well FACS buffer.

For test [2], the target named is rhNav1.7α + β1-β2-β3 (rhesus monkey). As to the kind of experiment: cell-based or functional assay.
Test [3] addresses huNav1.7α + β1 (human). Description: cell-based or functional assay.
The target in test [4] is T1, muNav1.7α. Description: binding FACS, HEK JmpIn. The source holds these as a separate data set.
Test [5] concerns the target T2, huNav1.7α + β1-β2-β3 (human, UniProt Q15858 1-1988; A5A6L6 19-218; O60939 30-215; Q2KI11 23-215).
T2 construct: also called huNav1.7-beta1-beta2-beta3; huNav1.7-β1-β2-β3
Description: binding FACS, CHO FlpIn. The protocol:
as §1

Test [6] addresses T3, rhNav1.7α + β1-β2-β3 (rhesus monkey).
T3 construct: also called rhNav1.7-beta1-beta2-beta3; rhNav1.7-β1-β2-β3
Description: binding FACS, CHO FlpIn. The protocol: as §1

In test [7] the target is T2, huNav1.7α + β1-β2-β3. Description: binding FACS, CHO FlpIn. The method in brief: (§2)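 Cells are first suspended in FACS buffer at 1×10^5 per well. Next, FLAG3-tagged ISVD is added for 30 minutes at 4° C, and binding is then detected with murine anti-Flag. Finally, samples go into 1 μg/mL propidium iodide before flow cytometry.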
The source holds these as a separate data set.

Test [8] has as its target T3, rhNav1.7α + β1-β2-β3. Description: binding FACS, CHO FlpIn. The method in brief: as §2
The source holds these as a separate data set.

Test [9] addresses T3, rhNav1.7α + β1-β2-β3. As to the kind of experiment: cell-based or functional assay. This is another data set of the same source.
Test [10] addresses huNav1.7α + β1 (human). As to the kind of experiment: cell-based or functional assay. This is another data set of the same source.
Test [11] has as its target T4, ratNav1.7α (rat, UniProt O08562 1-1984). Description: cell-based or functional assay.
The target of test [12] is T3, rhNav1.7α + β1-β2-β3. As to the kind of experiment: cell-based or functional assay. This is another data set of the same source.
In test [13] the target is huNav1.7α + β1 (human). As to the kind of experiment: cell-based or functional assay. This is another data set of the same source.
Another test deals with T5, huNav1.7α (human, UniProt Q15858 1-1988).
T5 construct: HEK cells expressing the α subunit without β subunits; also called huNav1.7 (alpha-subunit); Human Nav1.7α
As to the kind of experiment: binding FACS, HEK.

Test [14] has as its target T6, huNav1.7α + β1 (human).
T6 construct: HEK293 cells; also called huNav1.7-beta1; huNav1.7-β1
Description: binding FACS, HEK.

Test [15] addresses T3, rhNav1.7α + β1-β2-β3. Description: cell-based or functional assay. The source holds these as a separate data set.
Test [16] addresses T6, huNav1.7α + β1. As to the kind of experiment: cell-based or functional assay. The source holds these as a separate data set.
The target of test [17] is T4, ratNav1.7α. Description: cell-based or functional assay. The source holds these as a separate data set.
For test [18], the target named is T7, rhNav1.7α + β1-β2-β3 (rhesus Nav1.7α co-expressed with Navβ1, Navβ2 and Navβ3 on cells) (rhesus monkey (α subunit); β subunits …).
T7 construct: also called rhNav1.7-beta1-beta2-beta3; CHO FlpIn rhNav1.7α + β1-β2-β3
As to the kind of experiment: binding FACS, CHO FlpIn cells. The protocol: as §1

In test [19] the target is T8, huNav1.7α + β1-β2-β3 (human Nav1.7α co-expressed with human Navβ1, Navβ2 and Navβ3 on cells) (human).
T8 construct: also called huNav1.7-beta1-beta2-beta3; CHO FlpIn huNav1.7α + β1-β2-β3
As to the kind of experiment: binding FACS, CHO FlpIn cells. The protocol:
as §1

Test [20] has as its target T7, rhNav1.7α + β1-β2-β3 (rhesus Nav1.7α …). Description: binding FACS, CHO FlpIn cells. The method in brief:
as §2
The source holds these as a separate data set.

Test [21] concerns the target T8, huNav1.7α + β1-β2-β3 (human Nav1.7α …). Description: binding FACS, CHO FlpIn cells. The method in brief: as §2
This is another data set of the same source.

Test [22] addresses T7, rhNav1.7α + β1-β2-β3 (rhesus Nav1.7α …). Description: cell-based or functional assay.
The target of test [23] is huNav1.7α + β1 on HEK cells (human, UniProt Q15858 1-1988; Q07699 19-218). Description: cell-based or functional assay.

Read-outs that look alike come from different tables or passages of the source.

T4 sequence (O08562 whole entry): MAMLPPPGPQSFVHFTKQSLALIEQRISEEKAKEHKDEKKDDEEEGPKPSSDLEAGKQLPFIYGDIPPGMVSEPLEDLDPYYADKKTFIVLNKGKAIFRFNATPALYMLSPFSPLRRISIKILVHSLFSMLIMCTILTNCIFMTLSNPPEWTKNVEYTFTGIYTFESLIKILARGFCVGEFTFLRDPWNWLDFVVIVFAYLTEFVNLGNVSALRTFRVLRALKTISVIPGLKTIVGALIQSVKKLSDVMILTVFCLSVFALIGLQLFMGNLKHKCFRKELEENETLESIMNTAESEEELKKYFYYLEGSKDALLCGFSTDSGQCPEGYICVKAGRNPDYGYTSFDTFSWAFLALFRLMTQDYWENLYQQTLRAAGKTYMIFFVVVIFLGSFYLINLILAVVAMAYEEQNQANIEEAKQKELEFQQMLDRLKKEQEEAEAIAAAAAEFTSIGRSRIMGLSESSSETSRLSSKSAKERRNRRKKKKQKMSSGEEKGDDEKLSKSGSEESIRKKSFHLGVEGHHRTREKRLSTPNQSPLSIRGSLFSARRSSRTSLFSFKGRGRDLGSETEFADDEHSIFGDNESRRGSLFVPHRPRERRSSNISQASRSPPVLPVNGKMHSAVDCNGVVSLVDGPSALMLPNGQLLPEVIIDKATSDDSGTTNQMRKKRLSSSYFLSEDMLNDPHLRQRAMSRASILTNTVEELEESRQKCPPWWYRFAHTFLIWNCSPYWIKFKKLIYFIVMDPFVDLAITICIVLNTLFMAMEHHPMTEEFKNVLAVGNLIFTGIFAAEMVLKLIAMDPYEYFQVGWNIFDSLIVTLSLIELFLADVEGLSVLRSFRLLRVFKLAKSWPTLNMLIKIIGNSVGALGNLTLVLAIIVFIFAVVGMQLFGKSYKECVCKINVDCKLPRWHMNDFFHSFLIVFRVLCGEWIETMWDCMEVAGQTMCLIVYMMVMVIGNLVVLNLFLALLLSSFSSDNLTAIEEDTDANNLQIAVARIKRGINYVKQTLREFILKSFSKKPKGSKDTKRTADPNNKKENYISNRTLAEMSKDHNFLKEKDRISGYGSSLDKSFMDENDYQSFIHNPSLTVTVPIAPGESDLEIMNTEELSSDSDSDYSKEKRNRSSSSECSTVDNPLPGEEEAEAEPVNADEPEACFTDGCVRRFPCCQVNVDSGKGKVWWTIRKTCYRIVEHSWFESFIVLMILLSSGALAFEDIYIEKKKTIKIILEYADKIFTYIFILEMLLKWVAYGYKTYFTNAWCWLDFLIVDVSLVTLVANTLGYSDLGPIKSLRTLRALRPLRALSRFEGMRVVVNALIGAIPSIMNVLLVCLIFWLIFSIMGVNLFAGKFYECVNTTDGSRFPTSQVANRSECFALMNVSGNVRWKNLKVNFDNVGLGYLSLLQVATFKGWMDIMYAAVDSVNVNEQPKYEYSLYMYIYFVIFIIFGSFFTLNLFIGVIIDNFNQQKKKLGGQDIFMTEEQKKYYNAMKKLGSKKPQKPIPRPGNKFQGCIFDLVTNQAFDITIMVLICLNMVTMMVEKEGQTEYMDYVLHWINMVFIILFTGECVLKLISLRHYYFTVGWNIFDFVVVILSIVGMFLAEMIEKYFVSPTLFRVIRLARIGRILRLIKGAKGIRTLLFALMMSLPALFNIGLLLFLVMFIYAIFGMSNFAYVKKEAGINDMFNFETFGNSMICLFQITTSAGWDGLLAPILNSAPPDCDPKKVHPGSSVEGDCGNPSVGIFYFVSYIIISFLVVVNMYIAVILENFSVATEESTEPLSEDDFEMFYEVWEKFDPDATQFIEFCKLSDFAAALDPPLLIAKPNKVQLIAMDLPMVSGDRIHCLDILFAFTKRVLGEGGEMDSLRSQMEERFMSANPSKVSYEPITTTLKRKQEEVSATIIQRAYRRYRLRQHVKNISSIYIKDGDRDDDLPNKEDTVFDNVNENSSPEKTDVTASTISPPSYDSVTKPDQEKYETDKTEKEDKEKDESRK

B1: F0103464B09 (parental)-FLAG-HIS6 (VHH)
VHH: EVQLVESGGGLVQPGGSLRLSCATTSRAFIRDVFTGWYRRVPGKERELVARIYNGGNTNYADFAKGRFSISRDNAKKMVTLRMSNLKPEDTGVYYCLFSGTINTGREYRSGDYWGQGTLVTVSS
notes: also called F010346B09
The EC50 is the concentration that produces a half-maximal response. Turning to B1, the Bmax came to 74% with muNav1.7α [1], 99% with huNav1.7α + β1-β2-β3 [7] and 33% with rhNav1.7α + β1-β2-β3 [8]. Further, the concentration giving a half-maximal response (EC50) was found to be 6.3 nM with muNav1.7α [1]; 6.3 nM in the test with muNav1.7α [4]; 5.2 nM in the test with huNav1.7α + β1-β2-β3 [5]; 18 nM with rhNav1.7α + β1-β2-β3 [6]; 5.2 nM in the test with huNav1.7α + β1-β2-β3 [7]; 18 nM with rhNav1.7α + β1-β2-β3 [8]. The “Qpatch IC50” value was 166 nM with rhNav1.7α + β1-β2-β3 [2] and 7 nM with huNav1.7α + β1 [3].

B2: 69AVB (Fc fusion)
chain: EVQLVESGGGLAQPGGSLRLSCAASGPVFNINRMAWYRRAPGKQRELVAYVTPTGDISYTDSVKGRFTISRDGSKRWSLQMNSLTPEDTAVYYCRALLQPDSYSNTRTYWGQGTLVTVSS
notes: also called F010301656-5GS-Fc; F10301656* (ISVD with human IgG1 Fc); not shown: 5GS linker; human IgG1 Fc
For B2, the “Qpatch IC50” value in the test with rhNav1.7α + β1-β2-β3 [9] came to 8 nM; with huNav1.7α + β1 [10] it was 13 nM; with ratNav1.7α [11], 21 nM. The “Qpatch IC50 [M], HEK cells” value with rhNav1.7α + β1-β2-β3 [12] was determined as 8e-09 M; with huNav1.7α + β1 [13] it was 1.3e-08 M. Further, the figures for the concentration giving a half-maximal response (EC50) with huNav1.7α and in the test with huNav1.7α + β1 [14] were 11 nM and 9 nM, respectively. In addition, the “QPatch electrophysiology IC50 [M], HEK cells” value with rhNav1.7α + β1-β2-β3 [15] turned out to be 8e-09 M; with huNav1.7α + β1 [16] it was 1.3e-08 M; with ratNav1.7α [17], 2.1e-08 M. In addition, in the test with huNav1.7α + β1 [16], the “Human SA ratio of QPatch IC50” value came out at 2. In the test with huNav1.7α + β1 [16], the “QPatch electrophysiology IC50 [M], HEK cells, + 10 µM human SA” value was 2.6e-08 M.

B3: F010302383 (VHH)
VHH: EVQLVESGGGVVQPGGSLRLSCAASGPVFNINRMAWYRQAPGKQRELVAYVTPTGDISYADSVKGRFTISRGGSKRVYLQMNSLRPEDTALYYCRALLQPSSYSGTRTYWGQGTLVTVSS
notes: also called F0103387G04(L11V, A12V, K33R, R39Q, S50Y, S56D, T60A, D72G, W78V, S79Y, T83R, V89L, N93R, D99S, N100cG) + FLAG3-HIS6
Regarding B3, the EC50 stood at 4.5 nM in test [18], 6.8 nM in test [19], 4.5 nM in [20] and 6.8 nM in [21]. Moreover, the Bmax in test [20] and in test [21] was 100% each time. Besides, in test [22], the “IC50 [M], in vitro electrophysiology, HEK rhNav1.7α + β1-β2-β3” value worked out at 3e-09 M. The “IC50 [M], in vitro electrophysiology, HEK huNav1.7α + β1” value in test [23] stood at 2.2e-08 M.
